Molecular target: Saccharomyces cerevisiae Asf1 (2–169) (Saccharomyces cerevisiae, UniProt P32447 2-169)
Experiment: ITC

Sequence of Saccharomyces cerevisiae Asf1 (2–169) (P32447 2-169): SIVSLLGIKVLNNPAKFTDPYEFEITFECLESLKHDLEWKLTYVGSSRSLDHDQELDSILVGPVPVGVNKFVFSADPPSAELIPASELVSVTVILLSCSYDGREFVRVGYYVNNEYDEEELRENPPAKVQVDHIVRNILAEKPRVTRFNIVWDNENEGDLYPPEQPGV

B1: Rtt109^419–433 peptide (peptide)
peptide: LAITMLKPRKKAKAL
Kd: 7.78 ± 1.23 µM
